The record followed here is patent US10766960 (dated 2020).

Common to all, as to assay: SPR
(In general: In SPR one partner is held on a chip, and binding of the other changes the refractive index at the surface.)

One test deals with T1, FcgRIa (human, UniProt P12314).
T1 chain: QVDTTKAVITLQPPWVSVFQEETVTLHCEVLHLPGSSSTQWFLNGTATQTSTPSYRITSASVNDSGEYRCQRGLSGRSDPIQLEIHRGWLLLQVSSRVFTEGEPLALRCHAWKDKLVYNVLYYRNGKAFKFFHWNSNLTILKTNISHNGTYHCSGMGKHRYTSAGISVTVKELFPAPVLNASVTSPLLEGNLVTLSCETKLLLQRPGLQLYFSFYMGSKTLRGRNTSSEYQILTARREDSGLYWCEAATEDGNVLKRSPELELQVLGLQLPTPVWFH

Another test concerns the target T2, FcgRIIa R (human, UniProt P12318).
T2 chain: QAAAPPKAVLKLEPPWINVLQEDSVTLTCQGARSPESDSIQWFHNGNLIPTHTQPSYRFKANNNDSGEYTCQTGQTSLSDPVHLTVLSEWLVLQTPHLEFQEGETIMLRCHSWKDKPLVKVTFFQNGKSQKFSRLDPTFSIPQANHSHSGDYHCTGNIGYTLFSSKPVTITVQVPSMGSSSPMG

For a further test, the target named is T3, FcgRIIb (human, UniProt P31994).
T3 chain: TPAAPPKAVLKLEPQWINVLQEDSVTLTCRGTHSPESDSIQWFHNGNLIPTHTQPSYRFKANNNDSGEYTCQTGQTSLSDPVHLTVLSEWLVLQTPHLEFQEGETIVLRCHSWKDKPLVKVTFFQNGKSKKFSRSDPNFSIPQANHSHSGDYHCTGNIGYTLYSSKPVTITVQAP

In a further test the target is T4, FcgRIIa H (human, UniProt P12318).
T4 chain: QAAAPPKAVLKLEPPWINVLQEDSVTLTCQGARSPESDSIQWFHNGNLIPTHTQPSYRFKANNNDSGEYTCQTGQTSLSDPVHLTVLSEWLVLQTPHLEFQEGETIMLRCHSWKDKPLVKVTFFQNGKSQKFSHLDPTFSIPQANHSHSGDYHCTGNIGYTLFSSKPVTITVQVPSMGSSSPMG

The target of a further test is FcgRIIIa V (human, UniProt P08637).
Chain of FcgRIIIa V (P08637 17-208 F176V): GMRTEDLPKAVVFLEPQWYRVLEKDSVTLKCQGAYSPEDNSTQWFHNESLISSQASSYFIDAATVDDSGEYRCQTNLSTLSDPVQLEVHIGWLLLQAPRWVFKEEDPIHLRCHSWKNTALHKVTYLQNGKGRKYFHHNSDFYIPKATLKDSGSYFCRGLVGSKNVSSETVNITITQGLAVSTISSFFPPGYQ
In the next test the target is FcgRIIIa F (human, UniProt P08637).
Chain of FcgRIIIa F (P08637 17-208): as the sequence (P08637 17-208 F176V) above, with V160F counted along it

One may read the Kd as a measure of binding affinity in units of concentration. A higher Kd goes with lower affinity.

B1: H240-FA021/H240-FB084/L73-k0 (antibody)
chain 1: QDQLVQSGAEVKKPGASVKVSCKASGFNIKDTYIQWVRQAPGQGLEWMGRIDPLRKQTKYREKFEGRVTITADTSTNTAYMELSSLRSEDTAVYYCVRSGREFDYWGQGTLVTVSSASTKGPSVFPLAPSSKSTSGGTAALGCLVKDYFPEPVTVSWNSGALTSGVHTFPAVLQSSGLYSLSSVVTVPSSSLGTKTYTCNVNHKPSNTKVDKKVEPKSCDKTHTCPPCPAPEYYWGPSVFLFPPKPKDTLMISRTPEVTCVVVDVSDEEPEVKFNWYVDGVEVHNAKTKPREEQYNATYRVVSVLTVLHQDWLNGKEYKCKVSNKALPAPIEKTISKAKGQPREPQVYTLPPSRKEKTKNQVSLTCLVKGFYPSDIAVEWESNGQPENNYKTTPPKLDSDGSFFLYSKLTVDKSRWQQGNVFSCSVMHEALHNRYTQKSLSLSP
chain 2: QDQLVQSGAEVKKPGASVKVSCKASGFNIKDTYIQWVRQAPGQGLEWMGRIDPLRKQTKYREKFEGRVTITADTSTNTAYMELSSLRSEDTAVYYCVRSGREFDYWGQGTLVTVSSASTKGPSVFPLAPSSKSTSESTAALGCLVEDYFPEPVTVSWNSGALTSGVHTFPAVLQSSGLYSLSSVVTVPSSNFGTQTYTCNVDHKPSNTKVDKTVEPKSCDKTHTCPPCPAPELLGGPSVFLFPPKPKDTLMISRTPEVTCVVVDVSHEEPEVQFNWYVDGVEVHNAETKPREEQYNSTYRVVSVLTVLHQDWLNGKEYKCKVSNDALPMPIEETISKAKGQPREPQVYTLPPSREEMTKNQVSLTCLVKGFYPSDIAVEWESEGQPENNYKTTPPVLDSDGSFFLYSKLTVDKSRWQQGNVFSCSVMHEALHNHYTQESLSLSP
chain 3: DIQMTQSPSSLSASVGDRVTITCRASQDIHKYIAWYQQKPGQAPRLLIQYTSTLQPGVPSRFSGSGSGTDYTFTISSLQPEDIATYYCLQYEQLRTFGGGTKVEIKRTVAAPSVFIFPPSDEQLKSGTASVVCLLNNFYPREAKVQWKVDNALQSGNSQESVTEQDSKDSTYSLSSTLTLSKADYEKHKVYACEVTHQGLSSPVTKSFNRGEC
Take B1: the Kd stood at 0.033 nM in the test with FcgRIa; 230 nM with FcgRIIa R; 1300 nM with FcgRIIb; 69 nM in the test with FcgRIIa H; 1.3 nM with FcgRIIIa V; 3.3 nM in the test with FcgRIIIa F.

B2: H240-FA024/H240-FB064/L73-k0 (antibody)
chain 1: QDQLVQSGAEVKKPGASVKVSCKASGFNIKDTYIQWVRQAPGQGLEWMGRIDPLRKQTKYREKFEGRVTITADTSTNTAYMELSSLRSEDTAVYYCVRSGREFDYWGQGTLVTVSSASTKGPSVFPLAPSSKSTSGGTAALGCLVKDYFPEPVTVSWNSGALTSGVHTFPAVLQSSGLYSLSSVVTVPSSSLGTKTYTCNVNHKPSNTKVDKKVEPKSCDKTHTCPPCPAPEYYWGPSVFLFPPKPKDTLMISRTPEVTCVVVDVSDEEPKVKFNWYVDGVEVHNAKTKPREEQYNATYRVVSVLTVLHQDWLNGKEYKCKVSNKALPAPIEKTISKAKGQPREPQVYTLPPSRKEKTKNQVSLTCLVKGFYPSDIAVEWESNGQPENNYKTTPPVLDSDGSFFLYSKLTVDKSRWQQGNVFSCSVMHEALHNRYTQKSLSLSP
chain 2: QDQLVQSGAEVKKPGASVKVSCKASGFNIKDTYIQWVRQAPGQGLEWMGRIDPLRKQTKYREKFEGRVTITADTSTNTAYMELSSLRSEDTAVYYCVRSGREFDYWGQGTLVTVSSASTKGPSVFPLAPSSKSTSESTAALGCLVKDYFPEPVTVSWNSGALTSGVHTFPAVLQSSGLYSLSSVVTVPSSNFGTQTYTCNVDHKPSNTKVDKTVEPKSCDKTHTCPPCPAPELLGGPSVFLFPPKPKDTLMISRTPEVTCVVVDVSHEEPEVQFNWYVDGVEVHNAKTKPREEQYNSTYRVVSVLTVLHQDWLNGKEYKCKVSNDALPMPIEETISKAKGQPREPQVYTLPPSREEMTKNQVSLTCLVKGFYPSDIAVEWESNGQPENNYKTTPPVLDSDGSFFLYSKLTVDKSRWQQGNVFSCSVMHEALHNHYTQESLSLSP
chain 3: DIQMTQSPSSLSASVGDRVTITCRASQDIHKYIAWYQQKPGQAPRLLIQYTSTLQPGVPSRFSGSGSGTDYTFTISSLQPEDIATYYCLQYEQLRTFGGGTKVEIKRTVAAPSVFIFPPSDEQLKSGTASVVCLLNNFYPREAKVQWKVDNALQSGNSQESVTEQDSKDSTYSLSSTLTLSKADYEKHKVYACEVTHQGLSSPVTKSFNRGEC
B2: the Kd is 0.095 nM in the test with FcgRIa; 330 nM in the test with FcgRIIa R; 1900 nM in the test with FcgRIIb; 110 nM with FcgRIIa H; 1.3 nM with FcgRIIIa V; 4.7 nM in the test with FcgRIIIa F.

B3: H240-FA030/H240-FB082/L73-k0 (antibody)
chain 1: QDQLVQSGAEVKKPGASVKVSCKASGFNIKDTYIQWVRQAPGQGLEWMGRIDPLRKQTKYREKFEGRVTITADTSTNTAYMELSSLRSEDTAVYYCVRSGREFDYWGQGTLVTVSSASTKGPSVFPLAPSSKSTSGGTAALGCLVKDYFPEPVTVSWNSGALTSGVHTFPAVLQSSGLYSLSSVVTVPSSSLGTKTYTCNVNHKPSNTKVDKKVEPKSCDKTHTCPPCPAPEYYWGPSVFLFPPKPKDTLMISRTPEVTCVVVDVSDEEPKVKFNWYVDGVEVHNAKTKPREEQYNATYRVVSVLTVLHQDWLNGKEYKCKVSNKALPAPIEKTISKAKGQPREPQVYTLPPSRKEMTKNQVSLTCLVKGFYPSDIAVEWESNGQPENNYKTTPPVLDSDGSFFLYSKLTVDKSRWQQGNVFSCSVMHEALHNRYTQKSLSLSP
chain 2: QDQLVQSGAEVKKPGASVKVSCKASGFNIKDTYIQWVRQAPGQGLEWMGRIDPLRKQTKYREKFEGRVTITADTSTNTAYMELSSLRSEDTAVYYCVRSGREFDYWGQGTLVTVSSASTKGPSVFPLAPSSKSTSGETAALGCLVEDYFPEPVTVSWNSGALTSGVHTFPAVLQSSGLYSLSSVVTVPSSSLGTQTYICNVNHKPSNTKVDKKVEPKSCDKTHTCPPCPAPELLGGPSVFLFPPKPKDTLMISRTPEVTCVVVDVSHEEPEVQFNWYVDGVEVHNAETKPREEQYNSTYRVVSVLTVLHQDWLNGKEYKCKVSNDALPMPIEETISKAKGQPREPQVYTLPPSREEMTKNQVSLTCLVKGFYPSDIAVEWESEGQPENNYKTTPPVLDSDGSFFLYSKLTVDKSRWQQGNVFSCSVMHEALHNHYTQESLSLSP
chain 3: DIQMTQSPSSLSASVGDRVTITCRASQDIHKYIAWYQQKPGQAPRLLIQYTSTLQPGVPSRFSGSGSGTDYTFTISSLQPEDIATYYCLQYEQLRTFGGGTKVEIKRTVAAPSVFIFPPSDEQLKSGTASVVCLLNNFYPREAKVQWKVDNALQSGNSQESVTEQDSKDSTYSLSSTLTLSKADYEKHKVYACEVTHQGLSSPVTKSFNRGEC
Consider B3, for which the Kd with FcgRIa came out at 0.092 nM; in the test with FcgRIIa R, 300 nM; with FcgRIIb, 1900 nM; with FcgRIIa H, 88 nM; with FcgRIIIa V, 1.3 nM; with FcgRIIIa F it was 4.3 nM.

B4: H240-FA009/H240-FB001/L73-k0 (antibody)
chain 1: QDQLVQSGAEVKKPGASVKVSCKASGFNIKDTYIQWVRQAPGQGLEWMGRIDPLRKQTKYREKFEGRVTITADTSTNTAYMELSSLRSEDTAVYYCVRSGREFDYWGQGTLVTVSSASTKGPSVFPLAPSSKSTSGGTAALGCLVKDYFPEPVTVSWNSGALTSGVHTFPAVLQSSGLYSLSSVVTVPSSSLGTKTYICNVNHKPSNTKVDKKVEPKSCDKTHTCPPCPAPEYYWGPSVFLFPPKPKDTLMISRTPEVTCVVVDVSDEEPEVKFNWYVDGVEVHNAKTKPREEQYNATYRVVSVLTVLHQDWLNGKEYKCKVSNKALPAPIEKTISKAKGQPREPQVYTLPPSRKEMTKNQVSLTCLVKGFYPSDIAVEWESNGQPENNYKTTPPVLDSDGSFFLYSKLTVDKSRWQQGNVFSCSVMHEALHNRYTQKSLSLSP
chain 2: QDQLVQSGAEVKKPGASVKVSCKASGFNIKDTYIQWVRQAPGQGLEWMGRIDPLRKQTKYREKFEGRVTITADTSTNTAYMELSSLRSEDTAVYYCVRSGREFDYWGQGTLVTVSSASTKGPSVFPLAPSSKSTSGGTAALGCLVKDYFPEPVTVSWNSGALTSGVHTFPAVLQSSGLYSLSSVVTVPSSSLGTQTYICNVNHKPSNTKVDKKVEPKSCDKTHTCPPCPAPELLGGPSVFLFPPKPKDTLMISRTPEVTCVVVDVSHEEPEVQFNWYVDGVEVHNAKTKPREEQYNSTYRVVSVLTVLHQDWLNGKEYKCKVSNDALPMPIEETISKAKGQPREPQVYTLPPSREEMTKNQVSLTCLVKGFYPSDIAVEWESNGQPENNYKTTPPVLDSDGSFFLYSKLTVDKSRWQQGNVFSCSVMHEALHNHYTQESLSLSP
chain 3: DIQMTQSPSSLSASVGDRVTITCRASQDIHKYIAWYQQKPGQAPRLLIQYTSTLQPGVPSRFSGSGSGTDYTFTISSLQPEDIATYYCLQYEQLRTFGGGTKVEIKRTVAAPSVFIFPPSDEQLKSGTASVVCLLNNFYPREAKVQWKVDNALQSGNSQESVTEQDSKDSTYSLSSTLTLSKADYEKHKVYACEVTHQGLSSPVTKSFNRGEC
As for B4, the Kd was determined as 0.17 nM with FcgRIa; 250 nM with FcgRIIa R; 1300 nM in the test with FcgRIIb; 69 nM in the test with FcgRIIa H; 1.1 nM with FcgRIIIa V; 4.3 nM in the test with FcgRIIIa F.
